The labels stand for the following.
B1: E. coli LipB (EcLipB) (Escherichia coli K-12; G72A/G73A) (protein)
chain: MYQDKILVRQLGLQPYEPISQAMHEFTDTRDDSTLDEIWLVEHYPVFTQGQAGKAEHILMPGDIPVIQSDRAAQVTYHGPGQQVMYVLLNLKRRKLGVRELVTLLEQTVVNTLAELGIEAHPRADAPGVYVGEKKICSLGLRIRRGCSFHGLALNVNMDLSPFLRINPCGYAGMEMAKISQWKPEATTNNIAPRLLENILALLNNPDFEYITA
B2: E. coli LipB (EcLipB) (Escherichia coli K-12; R71A) (protein)
chain: B1 chain with R71A, A72G, A73G
B3: E. coli LipB (EcLipB) (Escherichia coli K-12; K135A) (protein)
chain: B1 chain with A72G, A73G, K135A

As a reminder, the Km is the substrate concentration at which the rate is half of its maximum. As usually defined, the Vmax is the rate approached at saturating substrate. As a reminder, the kcat is the maximal rate divided by the concentration of active sites.

Residue numbers refer to the chain shown, from its start. Names may count otherwise.

Substrate in this data set: CCCCCCCC(=O)SCCNC(=O)CCNC(=O)[C@H](O)C(C)(C)COP(=O)(O)OP(=O)(O)OC[C@H]1O[C@@H](n2cnc3c(N)ncnc32)[C@H](O)[C@@H]1OP(=O)(O)O
Briefly: purified protein. As to conditions: 5 μM LipB, 25 μM E. coli GcvH as acceptor, 0-160 μM C8-CoA, 50 mM Tris-HCl, 200 mM NaCl, pH 8.0, 30 °C.
For B1, the Km is 6.71 ± 0.98 µM, the Vmax was found to be 0.32 µmol/min and the kcat worked out at 0.001 s⁻¹.

Take B2: the Km amounted to 34.39 ± 8.8 µM, the Vmax is 0.26 µmol/min and the kcat amounted to 0.000833 s⁻¹.

In the case of B3, the Km was found to be 42.37 ± 4.58 µM, the Vmax turned out to be 0.2 µmol/min and the catalytic constant (kcat) came out at 0.000667 s⁻¹.

Values taken from publication PMC9307952, “Lipoate protein ligase B primarily recognizes the C8-phosphopantetheine arm of its donor substrate and weakly binds the acyl carrier protein” (The Journal of Biological Chemistry, 2022).
